According to the supplement of paper PMC9732359:
± gives the uncertainty stated by the source.

Test: protein stability index of a GFP-peptide fusion (yeast GPS) (PSI 1-4); higher = more stable; sorted into four equal gates, so the index is relative within each strain
How it was run: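 Mid-log yeast cultures in leucine-free medium, carrying a pooled plasmid library, were sorted into four equal gates by their GFP/Cherry fluorescence ratio. Each plasmid expressed Cherry along with GFP fused upstream of a tiled 17-residue yeast protein peptide. Plasmids recovered from each gate were PCR-amplified and Illumina-sequenced, with reads assigned to strains by barcodes. The protein stability index was obtained by summing each gate's read frequency weighted by its gate number.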

Sequence | protein stability index (doa10∆) | protein stability index (pdr5∆) | protein stability index (san1∆) | protein stability index (ubr1∆)
KELEPWDLQLQEKESQI [SMC4] | 3.16 ± 0.12 | 3.22 ± 0.13 | 3.21 ± 0.12 | 3.36 ± 0.12
KENEESLTPTQSDSAKV [PRP28] | 3.13 ± 0.088 | 3.35 ± 0.063 | 2.9 ± 0.095 | 3.11 ± 0.053
KEQTIQLPSKFTCSCNS [RPN14] | 2.15 ± 0.065 | 2.53 ± 0.057 | 1.96 ± 0.063 | 2.16 ± 0.038
KFGLLLQVSAQERKDFL [ECM29] | 1.6 ± 0.082 | 1.5 ± 0.056 | 1.59 ± 0.2 | 1.57 ± 0.047
KFLNFRPPNGIKNFKSL [SSN2] | 1.87 ± 0.04 | 1.83 ± 0.04 | 2.16 ± 0.061 | 1.79 ± 0.031
KFSERRKALPKEPKKLL [DSN1] | 2.33 ± 0.069 | 2.88 ± 0.081 | 2.52 ± 0.11 | 2.87 ± 0.053
KGIAKEHAKWGPAAAIE [RPB3] | 3.11 ± 0.12 | 3.32 ± 0.1 | 3.06 ± 0.13 | 2.9 ± 0.055
KGKDFEITAKEVYDFTH [FAS1] | 3.09 ± 0.059 | 3.23 ± 0.055 | 2.97 ± 0.052 | 3.05 ± 0.046
KGLETIDNGAESSENEA [RPC53] | 3.24 ± 0.13 | 3.44 ± 0.13 | 3.14 ± 0.1 | 3.12 ± 0.094
KGNVGFVFTNEPLTEIK [RPP0] | 3.56 ± 0.18 | 3.06 ± 0.1 | 2.06 ± 0.21 | 3.58 ± 0.2
KGRYAPETGDHVVGRIA [RRP4] | 3.03 ± 0.08 | 3.21 ± 0.08 | 2.6 ± 0.11 | 2.67 ± 0.11
KGVATTREKVLEDKLRA [RRP46] | 3.36 ± 0.15 | 3.16 ± 0.12 | 2.71 ± 0.23 | 3.04 ± 0.075
KGVGRRYSNLVCKKADV [RPS18A] | 3.46 ± 0.2 | 2.37 ± 0.11 | 1.74 ± 0.1 | 2.49 ± 0.074
KHDSLRYRLLSDVSDFE [RPN1] | 2.7 ± 0.09 | 3.04 ± 0.1 | 2.75 ± 0.089 | 2.66 ± 0.098
KHFIQGGSFGNREEFIN [RPL7A] | 1.61 ± 0.21 | 1.86 ± 0.14 | 1.21 ± 0.23 | 1.56 ± 0.04
KHSVTEYIFEAHEIIKR [CDC53] | 2.32 ± 0.067 | 1.87 ± 0.049 | 2.68 ± 0.075 | 2.58 ± 0.051
KIDIIELQKSLSLEEVE [FAS1] | 2.92 ± 0.14 | 2.62 ± 0.15 | 2.52 ± 0.077 | 2.79 ± 0.088
KIFWERLKEINGWEKYL [ISW2] | – | – | – | 1.46 ± 0.24
KILAGLHDTQIEGKLHM [RPN10] | 3.31 ± 0.18 | 3.46 ± 0.18 | – | 2.98 ± 0.22
KILRDNIQGITKPAIRR [HHF1] | 3.17 ± 0.083 | 3.33 ± 0.077 | 3.08 ± 0.055 | 3.21 ± 0.058
KILSPTMYMEVYTAIYN [CDC53] | 1.58 ± 0.058 | 1.62 ± 0.061 | 1.63 ± 0.08 | 1.74 ± 0.055
KILVLTGAGVSTSLGIP [SIR2] | 2.35 ± 0.042 | 2.34 ± 0.057 | 2.76 ± 0.054 | 2.69 ± 0.051
KINPFGFEQVKIALGSP [RRI2] | 2.65 ± 0.08 | 2.91 ± 0.053 | 2.77 ± 0.068 | 2.78 ± 0.07
KIPLPEVHDLIGFITSG [POP1] | – | 1.66 ± 0.24 | 1.88 ± 0.18 | 1.91 ± 0.14
KIQETELKIRSKTENVR [RPT6] | 2.35 ± 0.11 | 2.61 ± 0.088 | 2.23 ± 0.16 | 2.57 ± 0.073
KIRITLTSTKVKQLENV [RPS20] | 1.77 ± 0.076 | 2.11 ± 0.12 | 1.94 ± 0.11 | 2.25 ± 0.068
